Measured values: the supplement of paper PMC9112550, “Optimization of the antimicrobial peptide Bac7 by deep mutational scanning” (BMC Biology, 2022)

What follows are sequences tested on Escherichia coli TOP10 (assay: shrunken log2 fold change of peptide-encoding DNA abundance (4.5 h post-induction vs induction); higher = less antimicrobial activity (less host growth inhibition)). Conditions: time post-induction: 4.5 h; library: site-saturation at positions 5, 18, 19, 20.
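Also: peptides expressed intracellularly from a pBAD plasmid library in pooled LB shake-flask culture, induced with 0.3% L-arabinose, DNA abundance read by NGS, three biological replicates, DESeq2 with apeglm shrinkage.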

Question: For RRIRIRPPRLPRPRPRPLSMPRP, which “shrunken log2 fold change” value is on record?
Answer: Its value is -0.395.

Question: How did the “shrunken log2 fold change” value turn out when RRIRIRPPRLPRPRPRPLTAPRP was run?
Answer: Its value is 0.00505.

Question: Which “shrunken log2 fold change” value does the source give for RRIRIRPPRLPRPRPRPLTCPRP here?
Answer: The value was -0.174.

Question: For RRIRIRPPRLPRPRPRPLTDPRP, which “shrunken log2 fold change” value is on record?
Answer: The value was -0.201.

Question: For RRIRIRPPRLPRPRPRPLTQPRP, which “shrunken log2 fold change” value is on record?
Answer: Its value is -0.648.

Question: For RRIRIRPPRLPRPRPRPLVCPRP, which “shrunken log2 fold change” value is on record?
Answer: The value was -0.346.

Question: How did the “shrunken log2 fold change” value turn out when RRIRIRPPRLPRPRPRPLVTPRP was run?
Answer: The value was -0.105.

Question: For RRIRIRPPRLPRPRPRPLWEPRP, which “shrunken log2 fold change” value is on record?
Answer: The value was 0.223.

Question: How did the “shrunken log2 fold change” value turn out when RRIRIRPPRLPRPRPRPLWQPRP was run?
Answer: Its value is 0.0858.

Question: For RRIRIRPPRLPRPRPRPMAAPRP, which “shrunken log2 fold change” value is on record?
Answer: Its value is 0.403.

Question: How did the “shrunken log2 fold change” value turn out when RRIRIRPPRLPRPRPRPMAMPRP was run?
Answer: The value was -0.024.

Question: For RRIRIRPPRLPRPRPRPMAQPRP, which “shrunken log2 fold change” value is on record?
Answer: The value was 0.00812.

Question: RRIRIRPPRLPRPRPRPMEEPRP was tested. Which “shrunken log2 fold change” value did it give?
Answer: Its value is -0.00798.

Question: With RRIRIRPPRLPRPRPRPMFIPRP as the sequence, how does the “shrunken log2 fold change” value read?
Answer: Its value is -0.454.

Question: RRIRIRPPRLPRPRPRPMFQPRP was tested. Which “shrunken log2 fold change” value did it give?
Answer: The value was 0.0263.

Question: For RRIRIRPPRLPRPRPRPMGSPRP, which “shrunken log2 fold change” value is on record?
Answer: Its value is -0.0432.

Question: With RRIRIRPPRLPRPRPRPMKDPRP as the sequence, how does the “shrunken log2 fold change” value read?
Answer: The value was -0.135.

Question: For RRIRIRPPRLPRPRPRPMKKPRP, which “shrunken log2 fold change” value is on record?
Answer: The value was 0.0138.

Question: Which “shrunken log2 fold change” value does the source give for RRIRIRPPRLPRPRPRPMKYPRP here?
Answer: The value was -0.104.

Question: With RRIRIRPPRLPRPRPRPMLNPRP as the sequence, how does the “shrunken log2 fold change” value read?
Answer: Its value is -0.526.

Question: For RRIRIRPPRLPRPRPRPMMTPRP, which “shrunken log2 fold change” value is on record?
Answer: Its value is -0.115.

Question: How did the “shrunken log2 fold change” value turn out when RRIRIRPPRLPRPRPRPMNFPRP was run?
Answer: The value was -0.0453.

Question: For RRIRIRPPRLPRPRPRPMRIPRP, which “shrunken log2 fold change” value is on record?
Answer: Its value is -0.0754.

Question: RRIRIRPPRLPRPRPRPMRQPRP was tested. Which “shrunken log2 fold change” value did it give?
Answer: Its value is 0.3.

Question: RRIRIRPPRLPRPRPRPMVFPRP was tested. Which “shrunken log2 fold change” value did it give?
Answer: The value was -0.263.

Question: How did the “shrunken log2 fold change” value turn out when RRIRIRPPRLPRPRPRPMVIPRP was run?
Answer: The value was -0.154.

Question: RRIRIRPPRLPRPRPRPMVNPRP was tested. Which “shrunken log2 fold change” value did it give?
Answer: The value was -0.294.

Question: With RRIRIRPPRLPRPRPRPMWGPRP as the sequence, how does the “shrunken log2 fold change” value read?
Answer: Its value is -0.196.

Question: Which “shrunken log2 fold change” value does the source give for RRIRIRPPRLPRPRPRPMYDPRP here?
Answer: The value was -0.726.

Question: Which “shrunken log2 fold change” value does the source give for RRIRIRPPRLPRPRPRPMYVPRP here?
Answer: The value was 0.00823.

Question: With RRIRIRPPRLPRPRPRPNADPRP as the sequence, how does the “shrunken log2 fold change” value read?
Answer: The value was -0.322.

Question: Which “shrunken log2 fold change” value does the source give for RRIRIRPPRLPRPRPRPNALPRP here?
Answer: The value was -0.245.

Question: With RRIRIRPPRLPRPRPRPNCAPRP as the sequence, how does the “shrunken log2 fold change” value read?
Answer: The value was -0.187.

Question: Which “shrunken log2 fold change” value does the source give for RRIRIRPPRLPRPRPRPNCHPRP here?
Answer: The value was -0.232.

Question: How did the “shrunken log2 fold change” value turn out when RRIRIRPPRLPRPRPRPNCPPRP was run?
Answer: Its value is -0.231.

Question: Which “shrunken log2 fold change” value does the source give for RRIRIRPPRLPRPRPRPNCYPRP here?
Answer: Its value is -0.923.

Question: RRIRIRPPRLPRPRPRPNFIPRP was tested. Which “shrunken log2 fold change” value did it give?
Answer: The value was -0.327.

Question: RRIRIRPPRLPRPRPRPNFLPRP was tested. Which “shrunken log2 fold change” value did it give?
Answer: Its value is -0.677.

Question: Which “shrunken log2 fold change” value does the source give for RRIRIRPPRLPRPRPRPNILPRP here?
Answer: The value was -0.557.

Question: Which “shrunken log2 fold change” value does the source give for RRIRIRPPRLPRPRPRPNKFPRP here?
Answer: Its value is -0.992.

Question: Which “shrunken log2 fold change” value does the source give for RRIRIRPPRLPRPRPRPNLFPRP here?
Answer: The value was -0.512.

Question: How did the “shrunken log2 fold change” value turn out when RRIRIRPPRLPRPRPRPNMFPRP was run?
Answer: Its value is -0.394.

Question: With RRIRIRPPRLPRPRPRPNMGPRP as the sequence, how does the “shrunken log2 fold change” value read?
Answer: Its value is -0.563.

Question: Which “shrunken log2 fold change” value does the source give for RRIRIRPPRLPRPRPRPNMMPRP here?
Answer: Its value is -0.298.

Question: How did the “shrunken log2 fold change” value turn out when RRIRIRPPRLPRPRPRPNPNPRP was run?
Answer: Its value is -0.556.

Question: RRIRIRPPRLPRPRPRPNPTPRP was tested. Which “shrunken log2 fold change” value did it give?
Answer: The value was -0.17.

Question: RRIRIRPPRLPRPRPRPNTDPRP was tested. Which “shrunken log2 fold change” value did it give?
Answer: The value was -0.703.

Question: How did the “shrunken log2 fold change” value turn out when RRIRIRPPRLPRPRPRPNTFPRP was run?
Answer: Its value is -0.926.

Question: RRIRIRPPRLPRPRPRPNTTPRP was tested. Which “shrunken log2 fold change” value did it give?
Answer: Its value is -0.357.

Question: RRIRIRPPRLPRPRPRPPCWPRP was tested. Which “shrunken log2 fold change” value did it give?
Answer: The value was 0.836.

Question: With RRIRIRPPRLPRPRPRPPDHPRP as the sequence, how does the “shrunken log2 fold change” value read?
Answer: Its value is -0.134.

Question: With RRIRIRPPRLPRPRPRPPECPRP as the sequence, how does the “shrunken log2 fold change” value read?
Answer: Its value is -0.17.

Question: Which “shrunken log2 fold change” value does the source give for RRIRIRPPRLPRPRPRPPEEPRP here?
Answer: The value was 0.0652.

Question: For RRIRIRPPRLPRPRPRPPEKPRP, which “shrunken log2 fold change” value is on record?
Answer: Its value is -0.0181.

Question: Which “shrunken log2 fold change” value does the source give for RRIRIRPPRLPRPRPRPPGFPRP here?
Answer: The value was 0.195.

Question: How did the “shrunken log2 fold change” value turn out when RRIRIRPPRLPRPRPRPPGYPRP was run?
Answer: Its value is 0.0184.

Question: How did the “shrunken log2 fold change” value turn out when RRIRIRPPRLPRPRPRPPHAPRP was run?
Answer: The value was 0.162.

Question: For RRIRIRPPRLPRPRPRPPHKPRP, which “shrunken log2 fold change” value is on record?
Answer: The value was -0.0846.

Question: Which “shrunken log2 fold change” value does the source give for RRIRIRPPRLPRPRPRPPIDPRP here?
Answer: The value was -0.724.

Question: With RRIRIRPPRLPRPRPRPPKVPRP as the sequence, how does the “shrunken log2 fold change” value read?
Answer: The value was -0.0254.

Question: With RRIRIRPPRLPRPRPRPPLDPRP as the sequence, how does the “shrunken log2 fold change” value read?
Answer: The value was 0.0528.

Question: RRIRIRPPRLPRPRPRPPLQPRP was tested. Which “shrunken log2 fold change” value did it give?
Answer: Its value is 0.0345.

Question: How did the “shrunken log2 fold change” value turn out when RRIRIRPPRLPRPRPRPPLWPRP was run?
Answer: The value was 0.504.

Question: With RRIRIRPPRLPRPRPRPPMSPRP as the sequence, how does the “shrunken log2 fold change” value read?
Answer: Its value is -0.288.

Question: For RRIRIRPPRLPRPRPRPPRKPRP, which “shrunken log2 fold change” value is on record?
Answer: The value was 0.0691.

Question: For RRIRIRPPRLPRPRPRPPRLPRP, which “shrunken log2 fold change” value is on record?
Answer: Its value is 0.256.

Question: Which “shrunken log2 fold change” value does the source give for RRIRIRPPRLPRPRPRPPSPPRP here?
Answer: The value was 0.168.

Question: How did the “shrunken log2 fold change” value turn out when RRIRIRPPRLPRPRPRPPSQPRP was run?
Answer: The value was 0.258.

Question: Which “shrunken log2 fold change” value does the source give for RRIRIRPPRLPRPRPRPPVFPRP here?
Answer: Its value is 0.0815.

Question: Which “shrunken log2 fold change” value does the source give for RRIRIRPPRLPRPRPRPPVVPRP here?
Answer: Its value is 0.0726.

Question: Which “shrunken log2 fold change” value does the source give for RRIRIRPPRLPRPRPRPPWKPRP here?
Answer: The value was 0.089.

Question: How did the “shrunken log2 fold change” value turn out when RRIRIRPPRLPRPRPRPPWVPRP was run?
Answer: Its value is 0.0988.

Question: For RRIRIRPPRLPRPRPRPPYDPRP, which “shrunken log2 fold change” value is on record?
Answer: Its value is -0.814.

Question: How did the “shrunken log2 fold change” value turn out when RRIRIRPPRLPRPRPRPQAMPRP was run?
Answer: The value was -0.0316.

Question: For RRIRIRPPRLPRPRPRPQCIPRP, which “shrunken log2 fold change” value is on record?
Answer: Its value is -0.37.
